In patent US20150344570A1 (published 2015):

T1: FcγRIIa R (FcγRIIa, allotype with Arg at position 131), extracellular domain with C-terminal His tag (human, UniProt P12318 34-217)
T1 construct: extracellular domain; also called FcγRIIa R type; 2aR
T1 sequence (looked up): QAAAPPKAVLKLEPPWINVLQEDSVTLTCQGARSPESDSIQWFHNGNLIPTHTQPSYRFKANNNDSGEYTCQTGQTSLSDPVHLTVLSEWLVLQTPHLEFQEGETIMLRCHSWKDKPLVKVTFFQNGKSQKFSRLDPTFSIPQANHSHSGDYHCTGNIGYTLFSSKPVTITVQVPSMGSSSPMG

B1: GpH7-A5/GpH7-B3 variant Y296_09D/GpL16-k0 (antibody, human IgG1, kappa)
heavy 1: not shown
heavy 2: not shown
light: DIVMTQSPLSLPVTPGEPASISCQASESLVHSNRNTYLHWYLQKPGQSPQLLIYKVSNRFSGVPDRFSGSGSGTDFTLKISRVEAEDVGVYYCSQNTHVPPTFGQGTKVEIERTVAAPSVFIFPPSDEQLKSGTASVVCLLNNFYPREAKVQWKVDNALQSGNSQESVTEQDSKDSTYSLSSTLTLSKADYEKHKVYACEVTHQGLSSPVTKSFNRGEC
notes: also called He Ab
B2: GpH7-A5/GpH7-B3 variant Y296_10E/GpL16-k0 (antibody, human IgG1, kappa)
heavy 1: not shown
heavy 2: not shown
light: B1 light
notes: also called He Ab
B3: GpH7-A5/GpH7-B3 variant S337_09D/GpL16-k0 (antibody, human IgG1, kappa)
heavy 1: not shown
heavy 2: not shown
light: B1 light
notes: also called He Ab
B4: GpH7-A5/GpH7-B3 variant S337_15Y/GpL16-k0 (antibody, human IgG1, kappa)
heavy 1: not shown
heavy 2: not shown
light: B1 light
notes: also called He Ab
B5: GpH7-A5/GpH7-B3 variant Y296_04F/GpL16-k0 (antibody, human IgG1, kappa)
heavy 1: not shown
heavy 2: not shown
light: B1 light
notes: also called He Ab
B6: GpH7-A5/GpH7-B3 variant Y296_18N/GpL16-k0 (antibody, human IgG1, kappa)
heavy 1: not shown
heavy 2: not shown
light: B1 light
notes: also called He Ab
B7: GpH7-A5/GpH7-B3 variant T335_12R/GpL16-k0 (antibody, human IgG1, kappa)
heavy 1: not shown
heavy 2: not shown
light: B1 light
notes: also called He Ab
B8: GpH7-A5/GpH7-B3 variant S337_10E/GpL16-k0 (antibody, human IgG1, kappa)
heavy 1: not shown
heavy 2: not shown
light: B1 light
notes: also called He Ab
B9: GpH7-A5/GpH7-B3 variant S337_11K/GpL16-k0 (antibody, human IgG1, kappa)
heavy 1: not shown
heavy 2: not shown
light: B1 light
notes: also called He Ab
B10: GpH7-A5/GpH7-B3 variant Y296_07I/GpL16-k0 (antibody, human IgG1, kappa)
heavy 1: not shown
heavy 2: not shown
light: B1 light
notes: also called He Ab
B11: GpH7-A5/GpH7-B3 variant Y296_16H/GpL16-k0 (antibody, human IgG1, kappa)
heavy 1: not shown
heavy 2: not shown
light: B1 light
notes: also called He Ab
B12: GpH7-B3 variant K334_01G/GpL16-k0 (antibody, human IgG1, kappa)
heavy: not shown
light: B1 light
notes: also called Ho Ab K334_01G
B13: GpH7-B3 variant H268_10E/GpL16-k0 (antibody, human IgG1, kappa)
heavy: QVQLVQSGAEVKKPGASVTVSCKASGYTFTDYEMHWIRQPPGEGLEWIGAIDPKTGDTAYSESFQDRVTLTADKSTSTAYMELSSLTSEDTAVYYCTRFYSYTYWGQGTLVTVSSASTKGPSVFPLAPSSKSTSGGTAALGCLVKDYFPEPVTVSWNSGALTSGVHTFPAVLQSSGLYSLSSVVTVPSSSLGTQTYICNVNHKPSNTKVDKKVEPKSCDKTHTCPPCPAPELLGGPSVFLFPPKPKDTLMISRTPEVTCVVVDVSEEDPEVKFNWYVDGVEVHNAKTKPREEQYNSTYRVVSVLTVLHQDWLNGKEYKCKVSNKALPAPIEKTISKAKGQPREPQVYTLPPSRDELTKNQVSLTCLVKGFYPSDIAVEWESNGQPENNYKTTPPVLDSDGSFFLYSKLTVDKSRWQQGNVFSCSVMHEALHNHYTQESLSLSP
light: B1 light
notes: also called Ho Ab H268_10E
B14: GpH7-B3 variant I332_02A/GpL16-k0 (antibody, human IgG1, kappa)
heavy: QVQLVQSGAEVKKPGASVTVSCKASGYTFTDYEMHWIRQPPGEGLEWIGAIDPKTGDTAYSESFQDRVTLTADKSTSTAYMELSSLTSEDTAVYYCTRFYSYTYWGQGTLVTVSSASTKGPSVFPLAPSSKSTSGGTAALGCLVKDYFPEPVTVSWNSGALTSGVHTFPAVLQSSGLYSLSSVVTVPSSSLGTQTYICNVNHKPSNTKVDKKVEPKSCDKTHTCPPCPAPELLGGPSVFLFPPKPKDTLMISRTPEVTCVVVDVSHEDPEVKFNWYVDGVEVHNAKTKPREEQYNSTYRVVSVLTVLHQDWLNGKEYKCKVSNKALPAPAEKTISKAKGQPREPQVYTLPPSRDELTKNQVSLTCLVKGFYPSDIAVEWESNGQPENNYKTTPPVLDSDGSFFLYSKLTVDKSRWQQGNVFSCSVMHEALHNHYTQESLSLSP
light: B1 light
notes: also called Ho Ab I332_02A
B15: GpH7-B3 variant A330_20W/GpL16-k0 (antibody, human IgG1, kappa)
heavy: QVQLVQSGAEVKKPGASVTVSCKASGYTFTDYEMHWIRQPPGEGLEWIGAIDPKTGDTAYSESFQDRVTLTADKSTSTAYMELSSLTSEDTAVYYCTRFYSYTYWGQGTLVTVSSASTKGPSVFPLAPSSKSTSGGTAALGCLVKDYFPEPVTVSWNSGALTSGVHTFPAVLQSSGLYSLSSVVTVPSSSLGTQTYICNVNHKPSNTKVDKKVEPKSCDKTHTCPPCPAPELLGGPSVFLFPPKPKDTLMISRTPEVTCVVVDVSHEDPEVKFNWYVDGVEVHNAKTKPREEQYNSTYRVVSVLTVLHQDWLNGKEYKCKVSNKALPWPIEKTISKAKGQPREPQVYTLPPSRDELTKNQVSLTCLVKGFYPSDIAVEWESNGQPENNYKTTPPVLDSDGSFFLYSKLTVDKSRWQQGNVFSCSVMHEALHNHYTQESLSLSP
light: B1 light
notes: also called Ho Ab A330_20W
B16: GpH7-B3 variant I332_15Y/GpL16-k0 (antibody, human IgG1, kappa)
heavy: not shown
light: B1 light
notes: also called Ho Ab I332_15Y
B17: GpH7-B3 variant I332_14T/GpL16-k0 (antibody, human IgG1, kappa)
heavy: not shown
light: B1 light
notes: also called Ho Ab I332_14T
B18: GpH7-B3 variant E333_16H/GpL16-k0 (antibody, human IgG1, kappa)
heavy: not shown
light: B1 light
notes: also called Ho Ab E333_16H
B19: GpH7-B3 variant I332_13S/GpL16-k0 (antibody, human IgG1, kappa)
heavy: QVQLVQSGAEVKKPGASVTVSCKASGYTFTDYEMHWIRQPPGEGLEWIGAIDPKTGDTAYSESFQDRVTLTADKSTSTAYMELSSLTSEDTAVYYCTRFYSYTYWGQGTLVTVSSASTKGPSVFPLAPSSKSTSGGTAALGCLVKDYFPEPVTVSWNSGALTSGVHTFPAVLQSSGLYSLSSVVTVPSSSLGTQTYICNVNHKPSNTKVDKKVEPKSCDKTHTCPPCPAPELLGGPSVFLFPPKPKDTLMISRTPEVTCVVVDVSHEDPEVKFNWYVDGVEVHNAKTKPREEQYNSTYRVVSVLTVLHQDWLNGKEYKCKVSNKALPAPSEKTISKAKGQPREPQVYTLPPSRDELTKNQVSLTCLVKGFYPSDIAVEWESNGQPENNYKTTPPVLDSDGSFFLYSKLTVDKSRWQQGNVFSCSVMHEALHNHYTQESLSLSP
light: B1 light
notes: also called Ho Ab I332_13S
B20: GpH7-B3 variant A330_04F/GpL16-k0 (antibody, human IgG1, kappa)
heavy: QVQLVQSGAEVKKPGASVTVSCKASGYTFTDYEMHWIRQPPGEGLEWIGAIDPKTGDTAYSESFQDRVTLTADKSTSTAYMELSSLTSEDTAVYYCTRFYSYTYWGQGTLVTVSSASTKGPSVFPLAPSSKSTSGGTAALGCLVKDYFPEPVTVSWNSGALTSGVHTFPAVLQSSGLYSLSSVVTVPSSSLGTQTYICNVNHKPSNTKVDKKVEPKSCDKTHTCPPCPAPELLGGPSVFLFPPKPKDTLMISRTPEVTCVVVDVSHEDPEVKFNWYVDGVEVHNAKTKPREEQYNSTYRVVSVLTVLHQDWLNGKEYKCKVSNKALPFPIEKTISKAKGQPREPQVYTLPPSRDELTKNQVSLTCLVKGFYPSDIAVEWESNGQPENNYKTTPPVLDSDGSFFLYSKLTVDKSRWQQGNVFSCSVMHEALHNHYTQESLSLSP
light: B1 light
notes: also called Ho Ab A330_04F
B21: GpH7-B3 variant A330_08L/GpL16-k0 (antibody, human IgG1, kappa)
heavy: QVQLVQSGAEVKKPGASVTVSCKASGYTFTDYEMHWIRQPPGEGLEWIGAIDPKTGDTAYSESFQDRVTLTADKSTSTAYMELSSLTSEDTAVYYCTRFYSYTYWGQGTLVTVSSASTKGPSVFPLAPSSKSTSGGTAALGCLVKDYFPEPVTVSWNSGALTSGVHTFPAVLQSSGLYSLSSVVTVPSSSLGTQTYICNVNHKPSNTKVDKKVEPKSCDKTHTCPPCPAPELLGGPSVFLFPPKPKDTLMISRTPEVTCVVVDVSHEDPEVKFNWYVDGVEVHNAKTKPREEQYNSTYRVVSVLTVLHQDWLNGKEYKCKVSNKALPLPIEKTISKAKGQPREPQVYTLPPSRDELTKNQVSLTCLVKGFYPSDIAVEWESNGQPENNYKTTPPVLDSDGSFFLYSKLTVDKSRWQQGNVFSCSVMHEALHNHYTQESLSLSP
light: B1 light
notes: also called Ho Ab A330_08L
B22: GpH7-B3 variant I332_19Q/GpL16-k0 (antibody, human IgG1, kappa)
heavy: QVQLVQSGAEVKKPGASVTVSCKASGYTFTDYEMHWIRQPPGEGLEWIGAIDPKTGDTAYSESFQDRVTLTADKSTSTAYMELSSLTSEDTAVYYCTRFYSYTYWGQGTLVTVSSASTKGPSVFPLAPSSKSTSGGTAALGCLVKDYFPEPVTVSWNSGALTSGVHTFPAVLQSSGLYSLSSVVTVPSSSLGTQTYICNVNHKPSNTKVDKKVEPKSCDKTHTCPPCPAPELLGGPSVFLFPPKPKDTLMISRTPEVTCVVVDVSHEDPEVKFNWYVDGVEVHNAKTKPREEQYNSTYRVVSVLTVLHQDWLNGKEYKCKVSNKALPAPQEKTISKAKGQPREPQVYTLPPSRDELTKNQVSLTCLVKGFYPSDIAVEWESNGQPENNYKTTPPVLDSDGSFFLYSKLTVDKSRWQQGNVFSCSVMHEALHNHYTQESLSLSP
light: B1 light
notes: also called Ho Ab I332_19Q
B23: GpH7-B3 variant H268_09D/GpL16-k0 (antibody, human IgG1, kappa)
heavy: not shown
light: B1 light
notes: also called Ho Ab H268_09D
B24: GpH7-B3 variant I332_09D/GpL16-k0 (antibody, human IgG1, kappa)
heavy: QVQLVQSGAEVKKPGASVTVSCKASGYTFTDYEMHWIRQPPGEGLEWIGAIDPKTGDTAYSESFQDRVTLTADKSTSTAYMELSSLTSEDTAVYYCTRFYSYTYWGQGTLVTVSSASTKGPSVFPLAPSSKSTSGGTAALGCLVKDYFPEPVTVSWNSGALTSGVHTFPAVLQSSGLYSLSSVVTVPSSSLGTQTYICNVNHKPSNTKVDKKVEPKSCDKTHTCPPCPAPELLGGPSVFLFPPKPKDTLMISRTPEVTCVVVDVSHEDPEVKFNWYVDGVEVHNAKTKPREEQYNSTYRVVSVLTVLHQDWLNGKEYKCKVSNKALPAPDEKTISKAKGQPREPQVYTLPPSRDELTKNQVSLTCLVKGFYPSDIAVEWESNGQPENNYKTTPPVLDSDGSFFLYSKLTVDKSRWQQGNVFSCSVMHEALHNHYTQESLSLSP
light: B1 light
notes: also called Ho Ab I332_09D
B25: GpH7-B3 variant H268_13S/GpL16-k0 (antibody, human IgG1, kappa)
heavy: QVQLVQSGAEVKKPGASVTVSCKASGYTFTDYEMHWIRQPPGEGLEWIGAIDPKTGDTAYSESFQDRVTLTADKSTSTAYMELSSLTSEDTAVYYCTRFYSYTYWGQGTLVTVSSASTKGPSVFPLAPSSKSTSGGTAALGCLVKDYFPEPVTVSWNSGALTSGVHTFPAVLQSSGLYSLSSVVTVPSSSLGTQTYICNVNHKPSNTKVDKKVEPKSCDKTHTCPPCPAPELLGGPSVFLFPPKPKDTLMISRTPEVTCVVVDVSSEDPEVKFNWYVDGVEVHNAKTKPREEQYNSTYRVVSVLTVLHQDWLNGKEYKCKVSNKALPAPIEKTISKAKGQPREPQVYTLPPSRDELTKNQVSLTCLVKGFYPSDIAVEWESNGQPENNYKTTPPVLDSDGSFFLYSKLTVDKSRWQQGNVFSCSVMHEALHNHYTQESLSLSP
light: B1 light
notes: also called Ho Ab H268_13S
B26: GpH7-B3 variant I332_01G/GpL16-k0 (antibody, human IgG1, kappa)
heavy: not shown
light: B1 light
notes: also called Ho Ab I332_01G
B27: GpH7-B3 variant I332_10E/GpL16-k0 (antibody, human IgG1, kappa)
heavy: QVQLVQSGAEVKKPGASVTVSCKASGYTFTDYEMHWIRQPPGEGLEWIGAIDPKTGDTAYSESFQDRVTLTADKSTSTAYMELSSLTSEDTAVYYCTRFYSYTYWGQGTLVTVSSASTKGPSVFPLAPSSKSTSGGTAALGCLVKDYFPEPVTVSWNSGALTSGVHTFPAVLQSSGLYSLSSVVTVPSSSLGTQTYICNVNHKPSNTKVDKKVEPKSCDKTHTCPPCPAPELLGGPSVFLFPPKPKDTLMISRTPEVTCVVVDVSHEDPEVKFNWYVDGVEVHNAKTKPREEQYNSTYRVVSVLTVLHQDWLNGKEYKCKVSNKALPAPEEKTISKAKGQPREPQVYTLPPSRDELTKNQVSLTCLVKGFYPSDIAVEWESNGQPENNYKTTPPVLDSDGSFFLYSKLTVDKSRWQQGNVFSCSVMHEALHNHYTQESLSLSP
light: B1 light
notes: also called Ho Ab I332_10E

The binders below were run against T1, FcγRIIa R (FcγRIIa, allotype with Arg …) (assay: SPR (Biacore), antibody captured on antigen peptide chip, FcγR as analyte; relative binding).

He/Con_2aR | Binder
106 % of GpH7-A5/GpH7-B3/GpL16-k0 (=100) | B1
103 % of GpH7-A5/GpH7-B3/GpL16-k0 (=100) | B2
115 % of GpH7-A5/GpH7-B3/GpL16-k0 (=100) | B3
105 % of GpH7-A5/GpH7-B3/GpL16-k0 (=100) | B4
109 % of GpH7-A5/GpH7-B3/GpL16-k0 (=100) | B5
104 % of GpH7-A5/GpH7-B3/GpL16-k0 (=100) | B6
100 % of GpH7-A5/GpH7-B3/GpL16-k0 (=100) | B7
112 % of GpH7-A5/GpH7-B3/GpL16-k0 (=100) | B8
103 % of GpH7-A5/GpH7-B3/GpL16-k0 (=100) | B9
101 % of GpH7-A5/GpH7-B3/GpL16-k0 (=100) | B10
105 % of GpH7-A5/GpH7-B3/GpL16-k0 (=100) | B11

The binders below were run against T2, FcγRIIIa extracellular domain with C-terminal His tag (human, UniProt P08637 17-208) (assay: SPR Biacore, captured antibody, FcγR analyte, relative binding).
T2 construct: extracellular domain; also called FcgRIIIa; 3a; not shown: His tag attached to the C terminus
T2 sequence (P08637 17-208): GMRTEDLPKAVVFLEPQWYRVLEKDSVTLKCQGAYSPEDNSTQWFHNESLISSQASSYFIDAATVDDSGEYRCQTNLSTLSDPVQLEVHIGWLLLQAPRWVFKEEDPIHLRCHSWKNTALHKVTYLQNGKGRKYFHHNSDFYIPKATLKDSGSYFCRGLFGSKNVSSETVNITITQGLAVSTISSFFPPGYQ
Protocol: Analysis of interaction between objective antibody and the FcγR was carried out using Biacore T100 (GE Healthcare). HBS-EP+ (GE Healthcare) was used as the running buffer, and the measurement temperature was set to 25° C. Chips produced by immobilizing the antigen peptide by the amine coupling method to a Series S Sencor Chip CM5 (GE Healthcare), or alternatively, chips produced by allowing preliminarily biotinylated antigen peptides to interact with and immobilize onto a Series S Sensor Chip SA (certified) (GE Healthcare) were used. Antibodies of interest were captured onto an antigen peptide-immobilized chip, and allowed to interact to each FcγR diluted with running buffer. To regenerate and repeatedly use the chip, the antibodies captured on the chip were washed off by reacting 10 mM glycine-HCl, pH 1.5.

Ho/Con_3a | Binder
104 % of HoCon Ab GpH7-B3/GpL16-k0 (=100) | B12
206 % of HoCon Ab GpH7-B3/GpL16-k0 (=100) | B13
114 % of HoCon Ab GpH7-B3/GpL16-k0 (=100) | B14
118 % of HoCon Ab GpH7-B3/GpL16-k0 (=100) | B15
106 % of HoCon Ab GpH7-B3/GpL16-k0 (=100) | B16
138 % of HoCon Ab GpH7-B3/GpL16-k0 (=100) | B17
111 % of HoCon Ab GpH7-B3/GpL16-k0 (=100) | B18
112 % of HoCon Ab GpH7-B3/GpL16-k0 (=100) | B19
174 % of HoCon Ab GpH7-B3/GpL16-k0 (=100) | B20
138 % of HoCon Ab GpH7-B3/GpL16-k0 (=100) | B21
118 % of HoCon Ab GpH7-B3/GpL16-k0 (=100) | B22
220 % of HoCon Ab GpH7-B3/GpL16-k0 (=100) | B23
255 % of HoCon Ab GpH7-B3/GpL16-k0 (=100) | B24
130 % of HoCon Ab GpH7-B3/GpL16-k0 (=100) | B25
104 % of HoCon Ab GpH7-B3/GpL16-k0 (=100) | B26
278 % of HoCon Ab GpH7-B3/GpL16-k0 (=100) | B27
